This note sets out measurements from the supplement of paper PMC9170038.

This series concerns MS2 coat protein. Nature of the series: apparent KD of MS2 coat protein; designed switch direction (-1 OFF switch, 1 ON switch): -1; higher = weaker reporter binding. A digest of the protocol:
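An oligonucleotide input, 200 uM small-molecule ligand, or no input was present during titration of SNAP-549-labelled MS2 coat protein, which was doubled from 0.7 or 1.5 nM to 3 µM. Designed RNA switches had been transcribed on Illumina chips by stalled E. coli RNA polymerase. Apparent KD per design is the median over clusters of curves fitted to normalised cluster fluorescence.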

[1] abbreviates: Eterna round: R95, input ligand: FMN 200 uM.
Setting [2] is: Eterna round: R95, input ligand: microRNA oligo, concentration not stated.
Where [3] appears, read: Eterna round: R95, input ligand: none.
[4] abbreviates: input ligand: microRNA oligo, concentration not stated.

On to “GAUUAUGCGAGCUUUAGGGACAUGAGGAUCACCCAUGUUCGUCUUAUUAGUCUGAAUACGCUGACAUACCUAAAUCU [JMF 95] (puzzle: Sensor v3, turn-off variant 1)”, for which the “apparent KD of MS2 coat protein” value is, setting by setting: under setting [1], 16.3 nM; under setting [2], 19.5 nM; under setting [3], 19.2 nM.
As for “AGUCGUAAACAAGUUUCUGACAUGAGGAUCACCCAUGUGAGACUAAAAGUAUCAGAUUGCCUAAUAAGUAGCUCGUC [Eternabot (L2) Solution 29] (Eterna round: R97, puzzle: Sensor, turn-off variant 1)”, the “apparent KD of MS2 coat protein” value came out at 20.6 nM (input ligand: FMN 200 uM) and 23.5 nM (input ligand: none).
For the sequence “AGUUGGCGAGGAUAUACAUGAGGAUCACCCAUGUGAGAGGUACUAGUGAGGUCGAUUAGUAGAAGGCGCUGACA [Mat X3R4 m10] (Eterna round: R97, puzzle: Exclusion 3)”, the “apparent KD of MS2 coat protein” value is, setting by setting: (input ligand: FMN 200 uM) 2100 nM; (input ligand: none) 48.3 nM.
As to “UACAUGAGGAUCACCCAUGUUUUGUCGUGUAUGGUAUUUAUCUAGGAUAUCACGUUAUUUAUUUAUGAGAAGGAGAAUAUUAAU [JMF's solution 26] (Eterna round: R96, puzzle: Exclusion NG 3)”, the “apparent KD of MS2 coat protein” value runs as follows: (input ligand: FMN 200 uM) 38.9 nM; under setting [4], 17.1 nM; (input ligand: none) 39 nM.
The like results for “UAUUCUAGAUAGGAUAUACUUUUUUUUUUUUUCGUAGAAGGAUCUACAUGAGGAUCACCCAUGUUUUCAGCAGU [JR_E6_Sub012] (Eterna round: R96, puzzle: Exclusion 6)” were, in that order, 99.6 nM, 65.7 nM and 71.1 nM.
Take “GGCAGCUCAGGAUAUAGUUAAAACGACAUGAGGAUCACCCAUGUGACUGAUAUGCGGCGCCUAGAAGGGAGGUGCC [Xeusisso] (puzzle: Exclusion 5)”: the “apparent KD of MS2 coat protein” value under setting [2] came to 14.6 nM.
As for “GCCAGAGCAGGAUAUUCAAUAAUUCACAUGAGGAUCACCCAUGUCCAGCGAAAGCUGGAGGGAGAAGGGCUCUGGC [Fiskers Ex 5 - 2] (puzzle: Exclusion 5)”, the “apparent KD of MS2 coat protein” value was 17.5 nM under setting [1], 33.4 nM under setting [2] and 44.3 nM under setting [3].
As to “AGUAACAGAGGAUAUACUAUUUUAUGUGUUUGUUAUUUUGAACAUGAGGAUCACCCAUGUAGAAGGCUGAAUAA [JMF 93] (puzzle: Exclusion 2)”, under setting [2], the “apparent KD of MS2 coat protein” value was determined as 24 nM.
In the case of “AUCCUACAUGAGGAUCACCCAUGUCAGGAUAUCCAAGAAAUCUGGCCGUAUCGGCCAGGGAGAAGGGACAUGGU [jl-ex1-4.63 ViennaUCT mod] (Eterna round: R97, puzzle: Exclusion 1)”, the “apparent KD of MS2 coat protein” value runs as follows: (input ligand: FMN 200 uM) 85.3 nM; (input ligand: none) 49 nM.
“GUGAGACAUGAGGAUCACCCAUGUCAGGAUAUGAUACUAUGUACUUCGGUACAUAGUAUCAGAAGGGACAGUGA [Ex1-3: 5] (puzzle: Exclusion 1)”: the “apparent KD of MS2 coat protein” value under setting [2] was found to be 42.5 nM.
As for “AUAAGCCCGGCAGGAUAUCACAGGUUGCCGGGUAUCAACAUGAGGAUCACCCAUGUACACCUGCUUGAGAAGGGCCCAAGGGCG [Inarza] (Eterna round: R96, puzzle: Exclusion NG 2)”, the “apparent KD of MS2 coat protein” value was found to be 163 nM (input ligand: FMN 200 uM), 69.6 nM under setting [4] and 80.3 nM (input ligand: none).
Consider “UCAUGUUUAGAGGAUAUGAUUACUCUAGAGUGAUCAGAAGGCUAGACAUGAGGAUCACCCAUGUCAGAACAUGG [Exclusion 6 - B - 17:c] (puzzle: Exclusion 6)”, for which the “apparent KD of MS2 coat protein” value under setting [1] amounted to 27.5 nM, the “apparent KD of MS2 coat protein” value under setting [2] was 21.5 nM and the “apparent KD of MS2 coat protein” value under setting [3] was found to be 29.1 nM.
As for “AAACACUGAGGAUAUGCGUAACAACAAAGCCUCACGUGCCAACAUGAGGAUCACCCAUGUAGAAGGCAGUCCAA [Mod R3 Insanara 17 - Jieux - Exclusion 2] (Eterna round: R97, puzzle: Exclusion 2)”, the “apparent KD of MS2 coat protein” value is 25.2 nM (input ligand: FMN 200 uM) and 25.1 nM (input ligand: none).
In the case of “AGCUGUGGCCGAGGAUAUACAUGAGGAUCACCCAUGUUACAUAAUUAGGCCUGGUAACAGGCUCCGUAGAAGGCGGUCUCAGCA [Eli eng2 - 005] (Eterna round: R96, puzzle: Exclusion NG 2)”, the “apparent KD of MS2 coat protein” value is 13 nM (input ligand: FMN 200 uM), 11.4 nM under setting [4] and 15.3 nM (input ligand: none).
With “GAUAGGGCAGGAUAUCGAGAUCCGCACAUGAGGAUCACCCAUGUUCGGUCGAAAGACCGACGAGAAGGGCCGUAUC [Omei Ex5 E6] (Eterna round: R97, puzzle: Exclusion 5)”, the “apparent KD of MS2 coat protein” value is, setting by setting: (input ligand: FMN 200 uM) 698 nM; (input ligand: none) 536 nM.
Consider “GUGGCACAUGAGGAUCACCCAUGUCAGGAUAUCGCGUGGUUUUUUGCGGCCGCGCGCGCGAGAAGGGACGUCUU (puzzle: Exclusion 1)”, for which the “apparent KD of MS2 coat protein” value under setting [2] turned out to be 31.1 nM.
Consider “UUGUUAUAUGAAGGAUAUACUUAACAUGAGGAUCACCCAUGUGGUGUUGUGAGUGAGUGAGUUUAGUAGAAGGUCAAUUAUUUU [JMF's solution 29] (Eterna round: R96, puzzle: Exclusion NG 2)”, for which the “apparent KD of MS2 coat protein” value reads like this: (input ligand: FMN 200 uM) 1340 nM; under setting [4], 380 nM; (input ligand: none) 492 nM.
Consider “GAAGAGACAGGAUAUACAUGAGGAUCACCCAUGUGAGUAAGGUAGAGGCGGAGGAGAUGUAGAAGGGUCAAAGA [JR_Exclu3_Sub016] (puzzle: Exclusion 3)”, for which the “apparent KD of MS2 coat protein” value stood at 49.9 nM under setting [1], 35.6 nM under setting [2] and 41.5 nM under setting [3].
As for “GCAUCCAUAGUGAGGAUAUACCUCUGGAUACAUAGGUAGAAGGCACAUGAGGAUCACCCAUGUUCUUAGGAUGC [Fiskers BMX 4 - 34] (puzzle: Brourd's mod of Exclusion 4)”, the “apparent KD of MS2 coat protein” value under setting [2] came out at 23.9 nM.
For “UUUAUAUAGUAAGGAUAUGUAUUAUGUUUAUCAACAGAAGGUACUGACAUGAGGAUCACCCAUGUUUUAGUGUGGGCAUGUAGU [JMF's solution 95] (Eterna round: R96, puzzle: Exclusion NG 1)”, the “apparent KD of MS2 coat protein” value under setting [4] stood at 181 nM.
Consider “GGACAUAAAGUCAGGAUAUUAAGGCGACCACGCGAUGAGAAGGGACAUGAGGAUCACCCAUGUGAUUCUCAUCA [Ingebive] (Eterna round: R97, puzzle: Brourd's mod of Exclusion 4)”, for which the “apparent KD of MS2 coat protein” value is, setting by setting: (input ligand: FMN 200 uM) 74.1 nM; (input ligand: none) 72.6 nM.
The like results for “GAACCGCGAGGAUAUACAGUCGAGUCUAUUACGUGUCUCGGACUUGAGGAUCACCCAAGUAGAAGGCGUCUCAG [salish99_ex2_r4_635] (Eterna round: R97, puzzle: Exclusion 2)” were, in that order, 54.5 nM and 56.2 nM.
On to “GGUCGGCGAGGAUAUACAUGAGGAUCACCCAUGUGAUAGAUUGCACGCGUACGUGUAUGUAGAAGGCGCUGACG [JL-ex3-3.30 salish99 mod] (puzzle: Exclusion 3)”, for which the “apparent KD of MS2 coat protein” value runs as follows: under setting [1], 811 nM; under setting [2], 29.6 nM; under setting [3], 32.8 nM.
In the same order, the values of “AUUUAAACAUAGGAUAUCGAAUUUAUCAUUUAACGAGAAGGAUGAACAUGAGGAUCACCCAUGUGGUAUCAUGG [Mat - Exclusion 6 - JL Mod - D4] (puzzle: Exclusion 6)” are 398 nM, 279 nM and 368 nM.
“CUUAUGUGAGGAUAUCAGUAGUGAUACGAUAGUAUUACUGCUGAGAAGGUACAUGAGGAUCACCCAUGUUCCUC [Exclusion 4 - Mod Omei Ex4 344 mod 4 v.1] (puzzle: Exclusion 4)”: the “apparent KD of MS2 coat protein” value under setting [2] was found to be 16.2 nM.
With “AAAACGUGAGGAUAUCCAAUAUAUGACAUGAGGAUCACCCAUGUUUCCACUCGUACCUCCGGAGAAGGCACAAUUA [Ex5 #77] (Eterna round: R97, puzzle: Exclusion 5)”, the “apparent KD of MS2 coat protein” value (input ligand: FMN 200 uM) stood at 46.4 nM and the “apparent KD of MS2 coat protein” value (input ligand: none) turned out to be 43 nM.
Turning to “AGUAGUUGUUUCCGUUCUUACAUGAGGAUCACCCAUGUUUCUUGUCGUGCUCGCGUUGCUCGUCAGACUACCUGUUG [salish99_TOv1_r3_062] (puzzle: Sensor v3, turn-off variant 1)”, the “apparent KD of MS2 coat protein” value was found to be 69.8 nM under setting [1], 88.6 nM under setting [2] and 105 nM under setting [3].
Consider “GUCGAGUGAGGAUAUGGUGAGUAGUGCCAGAGCGCUGCUCACCAGAAGGCACAUGAGGAUCACCCAUGUAUAGC [Mat - Exclusion 4 - Mod of JL - D13] (puzzle: Exclusion 4)”, for which the “apparent KD of MS2 coat protein” value under setting [2] is 15.2 nM.
As to “AUUGUUUAUGUAGGAUAUGCCUGGCGUGCCUUUGCAGAAGGACAUGAGGAUCACCCAUGUAUUGCGGUCUGCGUUCAGAUCGCC [salish99_ExNG1_r4_035] (Eterna round: R96, puzzle: Exclusion NG 1)”, the “apparent KD of MS2 coat protein” value reads like this: (input ligand: FMN 200 uM) 27.6 nM; under setting [4], 16.7 nM; (input ligand: none) 24.1 nM.
For the sequence “UAUAUAUAGUAAGGAUAUGUAAUCAUUUUAUAAACAGAAGGUACUGACAUGAGGAUCACCCAUGUUUUAGUGUGGGCAUGUAGA [JMF's solution 31] (Eterna round: R96, puzzle: Exclusion NG 1)”, the “apparent KD of MS2 coat protein” value under setting [4] stood at 64.6 nM.
Regarding “ACGGUGGUCCGAGAACAUGAGGAUCACCCAUGUGACAAAACCAAGGAUAUAGAAGGACCGCCCGACUAGAAGGUGGAAAGAAAA [Aresonen] (Eterna round: R96, puzzle: Exclusion NG 3)”, the “apparent KD of MS2 coat protein” value by setting is: (input ligand: FMN 200 uM) 101 nM; under setting [4], 73.3 nM; (input ligand: none) 117 nM.
For “GCUCGACAUGAGGAUCACCCAUGUCAGGAUAUCUUUGGAGGAGGCUUGCCGAUGAUAGAGAGAAGGGACAGGUA [Eternabot (L2) Solution 70] (Eterna round: R97, puzzle: Exclusion 1)”, the “apparent KD of MS2 coat protein” value runs as follows: (input ligand: FMN 200 uM) 26.7 nM; (input ligand: none) 22.4 nM.
